Data reported in the nanobody polyreactivity screen of Harvey et al. (2022).

Test: yeast display, Sf9 membrane polyspecificity reagent, FACS + sequencing; frameworks hold sequencing errors
Procedure, shortened: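 A nanobody's polyreactivity label depends on the gate it was sorted from. Yeast display cells were stained with 10% biotinylated, detergent-solubilized Sf9 membrane reagent for 1 hour at 4 °C, enriched on streptavidin microbeads and sorted by FACS. The low and high (top ~1%) gates were set on anti-HA fluorescence for expression and streptavidin fluorescence for reagent binding.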

Sequence | polyreactivity (PSR sort gate)
QVHLVESGGGLVQAGGSLRLSCAASGITFATYAMGWYRQAPGKERELVAAISGGGGRTYYADSVKGRFTISRDNAKNSVYLQMNSLKPEDTAVYYCATSQRSSQFYHWGQGTQVTVSS | high polyreactivity
QVQLVESGGGLVQAGGSLRLSCAASGLIFKYYALGWYRQAPGKERELVAAMSWSGGSTYYADSVKGRFTISRDTAKNTVYLQMNSLKPEDTAVYYCAADSWIYSYSALSIYDYWGQGTQVTVSS | high polyreactivity
QVQLVESGGGLVQAGGSLRLSCDASGLILGINSMGWYRQAPGKERELVAAISSSGGRTSYADSVKGRFTISRDNAKNTVYLQMNSLKPEDTAVYYCAKRRTTYSHYDYWGQGTQVTVSS | low polyreactivity
QVQLVESGGGLVQAGGSLRLTCAASGFIFQYYAMGWYRQAPGKEREFVAAISSSGTSTYYADSVKGRFTISRDNAKNTVYLQMNSLKPEDTAVYYCAAREAGLYWLYYPGLRYYYWGQGTQVTVSS | high polyreactivity
QVQLVESGGGLVQAGGILRLSCAASGLTFRDYAMGWYRQAPGKERELVAAISWNGSSTNYADSVKGRFTISRDNAKNTVYLQMNSLKPEDTSVYYCNAYYYYRRPLEGGYWGQGTQVTVSS | low polyreactivity
QVQLVESGGGLVQAGGSLRLSCAASGRTFRFNAMGWYRQAPGKERELVAAISSSGDSTYYADSVKGRFTISRDNAKNTVYLQMNSLKPEDTAVYYCAVRSRTPRAYYYWGQGTQVTVSS | low polyreactivity
QVQLVESGGGLVQAGGSLRLSCAASGIILATYAMGLYRQAPGKEMELVAAISWSGGRTYYADSVKGRFTISRDKAKNTVYLQMNSLKPEDTAVYYCNAAYPAYGRTQYGRYDYWGQGTQVTVSS | high polyreactivity
QVQLVESGGGLVQAGGRHRLSCAASGSTFSYNAMGWYRQAPGKERELVATISNTDSTNYADSVKGRFTISRDNAKNTVYLQMNSLKPEDTAVYYCAVVSARFDYEYWGQGTQVTVSS | low polyreactivity
QVQLVESGGGLVQAGGSLRLSCAASGRIFVGYVMGWYRQAPGKERELVAAISSGGRTYYADSVKGRFTISRDNAKNTVYLQMNSLKPEDTAVYYCAAKRGGYNKEYDYWGQGTQVTVSS | high polyreactivity
QVQLVESGGGLDQAGGSLRLSCAAAGFIFHLNAMGWYRQAPGKERELLASIRSSGDSTHYADSEKGRFTISRDNAKITVYLQMNSLKPEDTAVFYCNADFYPAGTLTYDYWGQGTQVTVSS | low polyreactivity
QVQLVESGGGLVQAGGSLRLSCAASGRIFRRYAMGWYRQAPGKERELVAAISSGGGSTYYADSVKGRFTISRDNAKNTVYLQMNSLKPEDTAVYYCNTDFYYDDVSQAHDYWGQGTQVTVSS | high polyreactivity
QVQLVESWGGLVQAGGSLRLSCASSGITFSPYALGWYRQAPGKERELVAAISSRGGSTYYADSVKGRFTISRDNAKNTVYFQMNSLKPEDTAVFYCNALTFVRYLFHYTYWGQGTQVTVSS | high polyreactivity
QVQHVESGGGLVQAGGSHPLSCAASGRIFQYNALGWYRKATGKERELLAAISLSGVRTYYADSVKGRFTISRDNAKNTVYLQMNSLKPEDTAVYYCAAVRFDRARGSPYPDRVGVYSWGQGTQVTVSS | high polyreactivity
QVQLVESGGGLVQAGGSLRLSCAATGSIFSSNAMGWYRQAPGKERELVAAIDYSGGRTYYADSVKGRFTISRDYEKNTVYLQMNSLKPEDTAVYYCAKLIPVHSRYDFWGQGTQVTVSS | low polyreactivity
QLQLVESGGGLVQAGGSLRLSCAASGSTFAPYAMGWYRQAPGKERELVADISGGSTNYADSVKGRFTISRDNAKNTVYLQMNSLKPEDTAVYYCATEDHVETVRRLYGYWGLGTQVTVSS | low polyreactivity
QVQLVESGGGLVQAGGSLRLSCASSGRTFTHYAMGWYRQAPGKERELVASISDGGRTHYADSVTGRFTISRDNAKNTVYLQMNSLKPEDTAVYYCATDRYPTRRYDYWGQGTQVTVSS | low polyreactivity
QVQLVESGGGLVQAGGSLRLSCAASGSIFVFNAMGWYRQAPGKERELVAAISNGDGTNYADSVKGRFTISRDNAKNTVYLQMNSLKPEETAVYYCAAVWTTLIVIEYDYWGQGTQVTVSS | low polyreactivity
QVQLVESGGGLVQAGGSLRLSCAASGRIFLGYAMGWYRQAPGKERELVARITLIGGGTNYADSVKGRFTISRDNAKNTVYLQMNSLKPEDTAVYYCAAKSPLRPWWVGAVSGNYWGQGTQVTVSS | low polyreactivity
QVQLVESGGGLVQAGGSLRLSCAASGRTFYSNVMGWYRQAPGKERELVAAISKSGGRTYYADSVKGRFTISRDNAKNTVYLQMNSLKPEDTAVYYCATDHGRYHGRYDYWGQGTQVTVSS | high polyreactivity
QVQLVESGGGLVQAGGSLRLSCAASGFTFSTNAMGWYRPAPGKEREVVAAITWRGGSTYYADSVKGRFTISRDNAKNTVYLQMNSLKPEDTAVYYCARRYRGSHVSYYKKFDYWGQGTQVTVSS | low polyreactivity
QVQLVESGGGLVQAGGSLRLSCPASGFILQYNAMGWYRQAPGKERELVAAITRSGVSTHYADSVKGRFTISRDNAKNTVYLQMNSLKPEDTAVYYCARTGHSLYSRYYYWGQGTQVTVSS | low polyreactivity
QVQLVESGGGLVQAGGSLRLSCAASGRIFYRNTMGWYRQAPGKERELVAAITWRAGRTYYADSVKGRFTISRDNAKNTVYLQMNSLKPEDTAVYYCNADRTAPERYSRVPSSDSWGQGTQVTVSS | high polyreactivity
